Results: paper PMC3660092

Biological target: YFP-IP3R type 1 (UniProt P11881)
Test: FRET or BRET

Sequence of UniProt P11881 (P11881 whole entry): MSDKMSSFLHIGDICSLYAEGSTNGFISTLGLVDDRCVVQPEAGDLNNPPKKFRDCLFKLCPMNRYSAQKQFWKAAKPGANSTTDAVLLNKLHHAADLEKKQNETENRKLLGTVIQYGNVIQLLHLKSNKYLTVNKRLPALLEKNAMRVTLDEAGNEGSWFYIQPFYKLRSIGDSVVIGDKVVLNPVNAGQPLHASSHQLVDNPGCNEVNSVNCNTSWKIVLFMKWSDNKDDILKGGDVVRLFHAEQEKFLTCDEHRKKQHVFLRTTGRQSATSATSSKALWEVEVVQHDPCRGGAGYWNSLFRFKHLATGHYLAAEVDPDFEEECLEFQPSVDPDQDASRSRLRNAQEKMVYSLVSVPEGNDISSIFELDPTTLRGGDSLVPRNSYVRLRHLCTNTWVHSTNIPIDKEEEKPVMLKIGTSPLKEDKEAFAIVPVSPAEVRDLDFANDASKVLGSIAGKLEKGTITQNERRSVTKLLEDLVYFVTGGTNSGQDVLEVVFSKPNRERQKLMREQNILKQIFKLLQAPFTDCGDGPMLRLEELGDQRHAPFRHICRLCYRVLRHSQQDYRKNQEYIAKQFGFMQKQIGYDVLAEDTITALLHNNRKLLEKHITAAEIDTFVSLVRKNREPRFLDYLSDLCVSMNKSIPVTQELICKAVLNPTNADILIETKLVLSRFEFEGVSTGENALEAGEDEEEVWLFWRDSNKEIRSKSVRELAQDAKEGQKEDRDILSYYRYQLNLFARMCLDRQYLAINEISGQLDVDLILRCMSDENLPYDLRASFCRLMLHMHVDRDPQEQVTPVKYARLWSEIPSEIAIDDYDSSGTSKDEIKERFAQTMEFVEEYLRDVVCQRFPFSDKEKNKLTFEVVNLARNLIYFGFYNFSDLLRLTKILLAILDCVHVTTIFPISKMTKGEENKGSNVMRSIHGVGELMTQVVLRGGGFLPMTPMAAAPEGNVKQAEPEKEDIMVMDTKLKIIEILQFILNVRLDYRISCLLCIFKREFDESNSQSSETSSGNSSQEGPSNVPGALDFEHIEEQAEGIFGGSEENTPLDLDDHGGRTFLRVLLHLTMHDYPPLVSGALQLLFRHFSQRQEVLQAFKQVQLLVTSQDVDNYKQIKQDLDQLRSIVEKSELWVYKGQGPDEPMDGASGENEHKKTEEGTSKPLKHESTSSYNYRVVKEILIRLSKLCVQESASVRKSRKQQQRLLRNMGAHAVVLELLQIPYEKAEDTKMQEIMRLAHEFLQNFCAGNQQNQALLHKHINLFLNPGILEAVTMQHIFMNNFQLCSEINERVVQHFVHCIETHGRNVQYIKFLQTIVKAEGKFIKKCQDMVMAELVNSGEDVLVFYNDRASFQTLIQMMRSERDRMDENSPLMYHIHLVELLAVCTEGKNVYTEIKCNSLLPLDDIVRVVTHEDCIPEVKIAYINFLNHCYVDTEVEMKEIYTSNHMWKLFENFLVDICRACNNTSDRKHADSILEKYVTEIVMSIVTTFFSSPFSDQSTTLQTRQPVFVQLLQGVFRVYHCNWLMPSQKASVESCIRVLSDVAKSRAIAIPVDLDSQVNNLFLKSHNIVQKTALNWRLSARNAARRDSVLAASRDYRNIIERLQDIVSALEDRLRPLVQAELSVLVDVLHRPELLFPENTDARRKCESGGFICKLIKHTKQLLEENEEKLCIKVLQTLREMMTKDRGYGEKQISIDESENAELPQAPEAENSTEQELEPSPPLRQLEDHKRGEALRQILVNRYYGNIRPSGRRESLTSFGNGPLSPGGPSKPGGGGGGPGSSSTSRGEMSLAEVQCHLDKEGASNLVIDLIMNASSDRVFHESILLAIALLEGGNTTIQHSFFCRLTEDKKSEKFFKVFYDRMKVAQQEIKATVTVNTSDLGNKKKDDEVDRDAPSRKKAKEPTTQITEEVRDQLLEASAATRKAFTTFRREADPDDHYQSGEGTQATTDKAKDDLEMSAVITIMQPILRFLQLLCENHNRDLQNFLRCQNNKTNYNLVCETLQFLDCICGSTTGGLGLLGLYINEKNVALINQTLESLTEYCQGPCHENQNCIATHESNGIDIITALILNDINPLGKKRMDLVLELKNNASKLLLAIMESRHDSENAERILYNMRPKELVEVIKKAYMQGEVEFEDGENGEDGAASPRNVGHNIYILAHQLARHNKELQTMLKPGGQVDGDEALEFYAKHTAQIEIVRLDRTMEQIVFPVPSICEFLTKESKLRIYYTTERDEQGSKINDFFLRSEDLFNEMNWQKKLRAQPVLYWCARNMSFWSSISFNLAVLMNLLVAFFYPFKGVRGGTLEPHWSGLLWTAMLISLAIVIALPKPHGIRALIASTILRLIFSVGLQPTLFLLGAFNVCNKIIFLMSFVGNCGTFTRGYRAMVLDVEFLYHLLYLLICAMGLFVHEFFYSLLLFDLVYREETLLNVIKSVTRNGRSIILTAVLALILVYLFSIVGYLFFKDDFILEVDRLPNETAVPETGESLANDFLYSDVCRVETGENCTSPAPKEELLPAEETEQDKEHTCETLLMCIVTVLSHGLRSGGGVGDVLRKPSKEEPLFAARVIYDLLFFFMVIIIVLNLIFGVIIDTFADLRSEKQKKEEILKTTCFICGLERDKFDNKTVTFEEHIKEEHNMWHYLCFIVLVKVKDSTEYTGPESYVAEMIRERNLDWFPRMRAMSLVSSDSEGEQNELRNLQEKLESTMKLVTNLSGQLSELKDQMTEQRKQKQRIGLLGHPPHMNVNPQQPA

Substance: CFP-Bcl-2 (from UniProt P10415 1-239) (natural protein)
- increase of the CFP signal after YFP bleaching (FRET efficiency): 28%
